Source: patent US20140274782A1, “AFFINITY REAGENTS AND METHODS FOR DETECTION, PURIFICATION, AND PROTEOMIC ANALYSIS OF METHYLATED PROTEINS” (The Board of Trustees of the Leland Stanford Junior …, priority 2013, published 2014)

Target: RPL14-60S ribosomal protein L14 (human) (UniProt P50914)
Experiment: ProtoArray, GST-treated control array

Chain of 3× Flag-3×MBT (designed binder; other documents disagree on this pair) (Q9Y468 258-598): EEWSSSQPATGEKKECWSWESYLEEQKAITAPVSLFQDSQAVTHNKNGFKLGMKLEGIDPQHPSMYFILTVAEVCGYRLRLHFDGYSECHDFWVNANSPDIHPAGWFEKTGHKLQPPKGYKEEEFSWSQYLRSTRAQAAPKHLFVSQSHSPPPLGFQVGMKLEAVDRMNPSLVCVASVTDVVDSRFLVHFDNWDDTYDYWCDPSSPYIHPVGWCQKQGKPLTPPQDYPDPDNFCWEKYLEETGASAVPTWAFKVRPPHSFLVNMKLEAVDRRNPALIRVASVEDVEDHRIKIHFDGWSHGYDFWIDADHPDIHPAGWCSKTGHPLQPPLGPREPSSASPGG

GST Average SNR: 0.728
Substance: 3× Flag-3×MBT (designed binder; other documents disagree on this pair)
